Test results taken from US20260070976A1 (Alector, published 2026).
Substitutions are numbered along the chain they refer to.

B1: X0 (PA-29) (antibody, V domains shown)
VH: QVQLVQSGAEVKKPGSSVKVSCKASGYNFLNYDVNWVRQAPGQGLEWMGGIIPIFGTANYAQKFQGRVTITADESTSTAYMELSSLRSEDTAVYYCATGVGAGWFDPWGQGTLVTVSS
VL: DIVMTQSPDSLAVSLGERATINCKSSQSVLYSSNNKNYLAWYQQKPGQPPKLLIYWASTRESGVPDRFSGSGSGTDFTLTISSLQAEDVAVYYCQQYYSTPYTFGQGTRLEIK
notes: conditioned media in the HEK293F assays; also called parental X0 (PA-29) antibody; XO (PA-29)
B2: X18 (antibody, human IgG4, V domains shown)
VH: B1 VH with N31H, G99A, P107T
VL: DIVMTQSPDSLAVSLGERATINCKSSQSVWFDPNNKNYLAWYQQKPGQPPKLLIYWASTRESGVPDRFSGSGSGTDFTLTISSLQAEDVAVYYCQQYFEEPYTFGQGTRLEIK
notes: conditioned media in the HEK293F assays
B3: X21 (antibody, human IgG4, V domains shown)
VH: B1 VH with N31H
VL: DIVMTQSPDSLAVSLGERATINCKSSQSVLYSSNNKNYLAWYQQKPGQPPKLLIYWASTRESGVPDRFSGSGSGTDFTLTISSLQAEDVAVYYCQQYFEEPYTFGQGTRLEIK
B4: X7 (antibody, human IgG4, V domains shown)
VH: B1 VH
VL: B2 VL with W30F, P33E
notes: as for B2
B5: X22 (antibody, human IgG4, V domains shown)
VH: B1 VH with N31H
VL: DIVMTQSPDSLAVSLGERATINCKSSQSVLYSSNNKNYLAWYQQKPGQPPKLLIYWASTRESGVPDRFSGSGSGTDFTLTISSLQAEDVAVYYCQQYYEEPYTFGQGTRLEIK
B6: X16 (antibody, human IgG4, V domains shown)
VH: B1 VH with N31H, G99A, P107T
VL: B2 VL with W30Y, P33V
notes: as for B2
B7: X20 (antibody, human IgG4, V domains shown)
VH: B1 VH with N31H, G99A
VL: B2 VL with W30Y, D32S, P33E, F98Y
notes: as for B2
B8: X12 (antibody, human IgG4, V domains shown)
VH: B1 VH with N31H, G99A, P107T
VL: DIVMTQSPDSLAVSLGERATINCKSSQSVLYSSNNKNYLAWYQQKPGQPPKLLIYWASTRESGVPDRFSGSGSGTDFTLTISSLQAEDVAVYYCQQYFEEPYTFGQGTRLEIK
notes: as for B2
B9: X1 (antibody, V domains shown)
VH: B1 VH with N31H, G99A, P107T
VL: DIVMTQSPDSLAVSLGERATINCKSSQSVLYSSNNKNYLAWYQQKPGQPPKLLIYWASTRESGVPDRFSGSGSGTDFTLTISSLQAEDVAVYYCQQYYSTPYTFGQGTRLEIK
notes: as for B2
B10: X14 (antibody, human IgG4, V domains shown)
VH: B1 VH with N31H, G99A, P107T
VL: B2 VL with W30Y, D32S
notes: as for B2

What was measured:
[1] = target: T1, cell surface PILRA on human monocytes (human, UniProt Q9UKJ1 20-303); test: cell-based or functional assay
[2] = target: T2, human PILRA G78 on HEK293F cells (human, UniProt Q9UKJ1 20-303); test: hA Kd of Table 9; method not stated (Example 8: HEK293F overexpressing cells, FACS)
T2 construct: also called hA; G78 OE

[3] = target: cynomolgus PILRA on HEK293F cells (cynomolgus monkey, UniProt A0A7N9CRU1 20-292); test: cA Kd of Table 9; method not stated (Example 8: HEK293F overexpressing cells, FACS)
[4] = target: T3, recombinant human PILRA (human, UniProt Q9UKJ1 20-197); test: SPR, Biacore T200, antibody captured by anti-Fab
Protocol: (§1) A subset of these antibodies was further evaluated using the Biacore T200 (Cytiva). Anti-PILRA antibodies were diluted to 10 μg/mL and captured using an anti-Fab (Cytiva, #28958325) surface on a CM4 chip, that was prepared by amine coupling according to the manufacturer's protocol. Human PILRA and cynomolgus PILRB were diluted in running buffer to 130 nM, and diluted 4-fold serially, twice, to 8 nM. Human PILRB was similarly diluted from 260 nM to 16 nM. These analytes were injected and allowed 2 minutes of association, followed by dissociation for 5 minutes.
(§2) Data were analyzed using Biacore evaluation software to generate kinetic constants. The equilibrium dissociation constants (KD) were calculated from the fitted association and dissociation rate constants (k-on and k-off) for each of the anti-PILRA antibodies. These Kn values are indicated with asterisks in Table 8 below.

[5] = target: T2, human PILRA G78 on HEK293F cells; test: FACS on HEK293F cells, binding on human PILRA (hA) over human PILRB (hB)
Protocol: (§3) Conditioned media samples containing the tested anti-PILRA antibodies were assessed for binding to HEK293F cells overexpressing human PILRA (hA), human PILRB (hB), and cynomolgus PILRA (cA) by FACS. The conditioned media containing the tested antibodies were incubated with the cells for 30 min at 4° C., washed twice, and then detected with goat anti-human IgG secondary antibody (Alexa Fluor 647) at 1:1000 dilution. The cells were analyzed by flow cytometry on FACS Canto II, and for all cell lines, the reported MFI values were calculated for each conditioned media. These antibodies were evaluated for nonspecific binding using a baculovirus particle (BVP) assay (Jain T., Sun T., Durand S., Hall A., Houston N. R., Nett J. H., Sharkey B., Bobrowicz B., Caffry L, Yu Y., et al. Biophysical properties of the clinical-stage antibody landscape. Proc. Natl. Acad. Sci. USA. 2017; 114:944-949. Doi: 10.1073/pnas.1616408114.). The BVP scores are listed in Table 9, and the higher the score the more nonspecific binding that occurred.

[6] = target: T4, recombinant human PILRB (human, UniProt Q9UKJ0 20-191); test: SPR, Carterra LSA, steady-state fit
Protocol: (§4) Binding kinetics of human anti-PILRA-IgG4 antibodies were evaluated by surface plasmon resonance (SPR) using a Carterra LSA instrument (Carterra, Salt Lake City, UT). Antibodies were immobilized in duplicate arrays onto an HC30M sensor chip (Carterra) by amine coupling according to the manufacturer's protocol. After priming the immobilized antibodies with HBS-EP+ (Teknova, Hollister, CA, #8022) running buffer with 0.5 mg/mL BSA (MP Biomedicals LLC, #820451), the immobilized antibodies were tested for their ability to bind to recombinant human PILRA (SEQ ID NO:1) and cynomolgus PILRA (SEQ ID NO:120) and to human PILRB (SEQ ID NO:105) and cynomolgus PILRB (SEQ ID NO:121).
(§5) For binding kinetics analysis, human and cynomolgus PILRA and PILRB analytes were diluted in running buffer to 440 to 470 nM, and diluted 3-fold serially five times, to 1.8 to 1.9 nM, and injected for five minutes over the entire chip using the single channel flow cell to measure association of binding to the immobilized antibodies. Dissociation of the analytes was measured for five minutes, followed by regeneration of the chip with two 30-second injections of 10 mM glycine pH 2.0.
For the human PILRB interactions, the binding was too weak and heterogenous for kinetic constants to be calculated in this assay. Therefore, steady-state affinities were estimated based on the binding level of each analyte concentration at the end of the injections.

[7] = target: T3, recombinant human PILRA; test: SPR, Carterra LSA, antibody amine-coupled, kinetic fit
Protocol: as §4, §5

[8] = target: T5, recombinant cynomolgus PILRA (SEQ ID NO:120) (cynomolgus monkey); test: as above
T5 construct: also called cyno PILRA
Protocol: as §4, §5

[9] = target: T2, human PILRA G78 on HEK293F cells; test: flow cytometry; HEK293F cells overexpressing human PILRA, goat anti-human IgG Alexa Fluor 647
Protocol: as §3

[10] = target: T1, cell surface PILRA on human monocytes; test: flow cytometry; Alexa Fluor 647-conjugated antibody on human CD14+ monocytes (second donor sample), Fc receptors blocked, 30 min on ice
Protocol: (§6) Anti-human PILRA antibodies X0 (PA-29) and its affinity matured variants were tested for their abilities to bind cell surface PILRA on human and cynomolgus monocytes. CD14+ monocytes were isolated from healthy human donors using a RosetteSep Human Monocyte Enrichment Cocktail kit (StemCell). Cynomolgus white blood cells were collected from cynomolgus whole blood. In both human and cynomolgus samples, the Fc receptor on the tested monocytes was blocked and the monocytes were treated with Alexa Fluor 647-conjugated PILRA antibodies for 30 minutes on ice. A dose response curve of antibodies X0 (PA-29), X1, X2, X7, X11, X12, X13, X14, X16, X18, and X20 was tested for binding to cell surface PILRA in human and cynomolgus monocytes, and antibodies bound to PILRA in a dose response manner. In another sample of human donor monocytes, a dose response curve of antibodies X0 (PA-29), X1, X2, X11, X13, X18, X29 (PA-43), and X34 (A6) was tested for binding to cell surface PILRA in human and cynomolgus monocytes, and antibodies bound to PILRA in a dose response manner.

[11] = target: T6, human PILRB on HEK293F cells (human, UniProt Q9UKJ0 20-227); test: hB Kd of Table 9; method not stated (Example 8: HEK293F overexpressing cells, FACS)
T6 construct: also called hB

[12] = target: T2, human PILRA G78 on HEK293F cells; test: flow cytometry blocking assay; antibody on HEK293F cells overexpressing human PILRA G78, then 5 ug/mL NPDC1 Fc as the blocked ligand; cell-bound NPDC1 Fc read as MFI
Protocol: A dose response curve of antibodies X0 (PA-29), X1, X2, X7, X11, X12, X13, X14, X16, X18, and X20 was assessed for modulating the binding of Neural Proliferation Differentiation and Control Protein 1 (NPDC1) Fc to 293 cells ectopically expressing human PILRA (HEK293F human PILRA G78 overexpressing cells). Conditioned media samples containing antibodies were incubated with human PILRA overexpressing cells for 30 minutes at 4° C., and then 5 μg/mL NPDC1 Fc was added to this mixture. After 30 minutes of incubation at 4° C., the cells were washed and cell-bound NPDC1 Fc was detected with anti-human IgG Alexa Fluor 647. The cells were analyzed by flow cytometry on FACS Canto II with the percentage of NPDC1 Fc binding in the presence of conditioned media relative to NPDC1 Fc binding alone was calculated. […] All tested antibodies decreased binding of NPDC1 to human PILRA.

[13] = target: T1, cell surface PILRA on human monocytes; test: flow cytometry; Alexa Fluor 647-conjugated antibody on human CD14+ monocytes, Fc receptors blocked, 30 min on ice
Protocol: as §6

[14] = target: T4, recombinant human PILRB; test: SPR, Biacore T200, antibody captured by anti-Fab
Protocol: as §1, §2

T1 sequence (Q9UKJ1 20-303): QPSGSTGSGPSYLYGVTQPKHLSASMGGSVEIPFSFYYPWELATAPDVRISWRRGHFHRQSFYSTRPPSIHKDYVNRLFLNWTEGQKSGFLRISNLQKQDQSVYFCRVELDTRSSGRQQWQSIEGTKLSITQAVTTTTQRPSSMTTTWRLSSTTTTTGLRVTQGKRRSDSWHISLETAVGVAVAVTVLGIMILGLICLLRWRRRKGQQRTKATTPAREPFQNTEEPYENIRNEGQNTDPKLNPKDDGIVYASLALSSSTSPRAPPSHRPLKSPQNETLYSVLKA
T4 sequence (Q9UKJ0 20-191 limits assumed): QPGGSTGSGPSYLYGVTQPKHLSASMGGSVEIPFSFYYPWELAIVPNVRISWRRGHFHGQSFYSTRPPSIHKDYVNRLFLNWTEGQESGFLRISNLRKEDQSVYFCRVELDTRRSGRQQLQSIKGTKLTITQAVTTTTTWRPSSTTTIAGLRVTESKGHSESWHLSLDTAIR
T2 sequence (Q9UKJ1 20-303 R78G): as the sequence (Q9UKJ1 20-303) above, with R59G counted along it
T6 sequence (Q9UKJ0 20-227): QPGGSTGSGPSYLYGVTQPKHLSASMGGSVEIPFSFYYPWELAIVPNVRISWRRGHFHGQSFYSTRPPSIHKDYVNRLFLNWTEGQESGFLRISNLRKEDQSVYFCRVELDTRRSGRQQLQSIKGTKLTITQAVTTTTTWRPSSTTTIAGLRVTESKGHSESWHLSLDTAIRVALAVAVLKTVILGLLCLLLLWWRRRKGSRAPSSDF
T5 sequence (chain, as listed by the source limits assumed): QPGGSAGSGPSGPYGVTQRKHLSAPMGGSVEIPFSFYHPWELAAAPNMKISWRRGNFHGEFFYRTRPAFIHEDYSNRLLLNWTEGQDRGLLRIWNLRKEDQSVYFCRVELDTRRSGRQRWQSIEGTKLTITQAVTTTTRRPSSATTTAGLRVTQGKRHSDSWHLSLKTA
Chain of cynomolgus PILRA on HEK293F cells (A0A7N9CRU1 entry or part of it): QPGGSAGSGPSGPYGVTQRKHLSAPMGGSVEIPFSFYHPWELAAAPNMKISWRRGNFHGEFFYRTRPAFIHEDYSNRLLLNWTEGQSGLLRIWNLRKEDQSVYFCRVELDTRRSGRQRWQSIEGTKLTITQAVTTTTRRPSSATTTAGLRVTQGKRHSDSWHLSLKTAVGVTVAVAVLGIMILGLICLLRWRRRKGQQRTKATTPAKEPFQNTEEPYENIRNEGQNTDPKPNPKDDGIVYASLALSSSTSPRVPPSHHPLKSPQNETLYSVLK
T3 sequence (Q9UKJ1 20-197 limits assumed): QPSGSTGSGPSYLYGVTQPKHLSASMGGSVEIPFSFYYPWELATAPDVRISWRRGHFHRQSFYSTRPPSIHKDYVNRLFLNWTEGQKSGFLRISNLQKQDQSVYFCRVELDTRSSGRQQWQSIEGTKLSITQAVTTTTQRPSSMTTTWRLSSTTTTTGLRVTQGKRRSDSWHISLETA

Binder | Hu Mono DR EC50 [1] [µg/mL] | Kd [2] [nM] | Kd [3] [nM] | Kd [4] [nM] | hA/hB binding ratio on HEK293F [5] | binding result [6] | Kd [7] [nM] | Kd [8] [nM] | EC50 (read off the curve) [9] [µg/mL] | EC50 (read off the curve) [10] [µg/mL] | Kd [6] [nM] | Kd [11] [nM] | IC50 (read off the curve) [12] [µg/mL] | EC50 (read off the curve) [13] [µg/mL] | Kd [14] [nM]
B1 | 0.7 | 78.7 | 192 | 294 | 108 | no binding | 233 | 17 | ~0.3 |  |  |  |  |  | 
B2 | ~0.02 | 0.1 | 0.2 |  | 6.5 |  | 1.3 | 0.2 | ~0.5 | ~0.1 | 4 | 3.4 |  |  | 
B3 |  |  |  | 1.9 |  |  | 1.8 | 0.1 |  |  | 43 |  |  |  | 
B4 | 0.9 | 1.2 | 2 |  | 63 |  | 3.8 | 0.4 |  |  | 77 |  | ~0.08 | ~0.2 | 
B5 |  |  |  | 6.2 |  |  | 2.2 | 0.2 |  |  | 54 |  |  |  | 14
B6 | 0.005 |  |  |  | 6.1 |  | 0.5 | 0.1 |  |  | 2 |  |  |  | 
B7 | ~0.02 |  |  |  | 6.7 |  | 0.5 | 0.1 |  |  | 2 |  |  |  | 
B8 | ~0.02 | 0.1 | 0.3 | 0.3 | 14.4 |  | 1 | 0.2 |  |  | 12 | 36.7 | ~0.08 | ~0.1 | 28
B9 | 0.02 | 0.4 | 5.3 | 1.6 | 56.7 |  | 2.5 | 1.6 | ~0.3 | ~0.1 | 39 | 126 | ~0.07 | ~0.2 | 128
B10 | ~0.02 | 0.1 | 0.3 |  | 7.9 |  | 1.1 | 0.1 |  |  | 4 | 6.6 | ~0.02 | ~0.1 | 
